Results taken from patent US20080044360A1 (COLLAGEN MEDICAL, published 2008).
Bridge positions count the residues as written; N and C are the ends. Square brackets hold non-standard residues; d marks the D form. Primed or numbered codes have the meaning given here. Side chains are listed from the residue outwards. Ends that are not written are not given here. * marks the point of attachment. Tyr(3-Cl) = N[C@@H](Cc1ccc(O)c(Cl)c1)C(=O)O; Phe(3-OMe) = COc1cccc(C[C@H](N)C(=O)O)c1; Phe(4-F) = N[C@@H](Cc1ccc(F)cc1)C(=O)O; Dmt = Cc1cc(O)cc(C)c1C[C@H](N)C(=O)O; hTyr = N[C@@H](CCc1ccc(O)cc1)C(=O)O; NMeA = CN[C@@H](C)C(=O)O; Gd^T″ = GdDTPA-thiourea; Cbz = O=C(OCc1ccccc1)*

B1: Compound ID 926 (peptide)
peptide: Cbz-GQWHCTTK(Gd^T″)FPHHYCLYG
modifications: disulfide 5-14 (inferred)
B2: Compound ID 927 (peptide)
peptide: {Gd^T″}-GQWHCTTLFPHHYCIYG
modifications: disulfide 5-14 (inferred)
B3: Compound ID 948 (peptide)
peptide: {Gd^T″}-GK([Gly-Gd^T″])WHCTTYFPHWYCLYG
modifications: disulfide 5-14 (inferred)
B4: Compound ID 957 (peptide)
peptide: {Gd^T″}-GQWHCK(Gd^T″)TRFPHHYCLYG
modifications: disulfide 5-14 (inferred)
B5: Compound ID 946 (peptide)
peptide: {Gd^T″}-GK([Gly-Gd^T″])WHCTTYFPYHYCLYG
modifications: disulfide 5-14 (inferred)
B6: Compound ID 949 (peptide)
peptide: {Gd^T″}-GK([Gly-Gd^T″])WHCTTYFPHHYCLYY
modifications: disulfide 5-14 (inferred)
B7: Compound ID 933 (peptide)
peptide: {Gd^T″}-GQWHCTTRFPHH[hTyr]CLYG
modifications: disulfide 5-14 (inferred)
B8: Compound ID 931 (peptide)
peptide: {Gd^T″}-GQWHCTTRFPHHYCFYG
modifications: disulfide 5-14 (inferred)
B9: Compound ID 945 (peptide)
peptide: {Gd^T″}-GK([Gly-Gd^T″])WHCYTYFPHHYCVYY
modifications: disulfide 5-14 (inferred)
B10: Compound ID 963 (peptide)
peptide: {Gd^T″}-GK([Gly-Gd^T″])WHCYTYFPYHYCVYG
modifications: disulfide 5-14 (inferred)
B11: Compound ID 959 (peptide)
peptide: {Gd^T″}-GQWHCYTLFPHHYCLYG
modifications: disulfide 5-14 (inferred)
B12: Compound ID 956 (peptide)
peptide: {Gd^T″}-GQWK(Gd^T″)CTTRFPHHYCLYG
modifications: disulfide 5-14 (inferred)
B13: Compound ID 928 (peptide)
peptide: {Gd^T″}-GQWHCTTLFPHHYCVYG
modifications: disulfide 5-14 (inferred)
B14: Compound ID 947 (peptide)
peptide: {Gd^T″}-GK([Gly-Gd^T″])WHCTTYFPHYYCLYG
modifications: disulfide 5-14 (inferred)
B15: Compound ID 958 (peptide)
peptide: {Gd^T″}-GQWHCTTRFPK(Gd^T″)HYCLYG
modifications: disulfide 5-14 (inferred)
B16: Compound ID 962 (peptide)
peptide: {Gd^T″}-GK([Gly-Gd^T″])WHCTTYFPTHYCLYG
modifications: disulfide 5-14 (inferred)
B17: Compound ID 953 (peptide)
peptide: {Gd^T″}-GK([Gly-Gd^T″])WHCTTYFPHH[Dmt]CLYG
modifications: disulfide 5-14 (inferred)
B18: Compound ID 929 (peptide)
peptide: {Gd^T″}-GQWHCTT[Phe(4-F)]FPHHYCLYG
modifications: disulfide 5-14 (inferred)
B19: Compound ID 954 (peptide)
peptide: {Gd^T″}-GQWHCTTRFPHHYCLYG
modifications: disulfide 5-14 (inferred); not fully specified (C-terminus)
B20: Compound ID 952 (peptide)
peptide: {Gd^T″}-GK([Gly-Gd^T″])WHCTTYFPHH[Tyr(3-Cl)]CLYG
modifications: disulfide 5-14 (inferred)
B21: Compound ID 938 (peptide)
peptide: {Gd^T″}-GQWHCTTRF[NMeA]HHYCLYG
modifications: disulfide 5-14 (inferred)
B22: Compound ID 944 (peptide)
peptide: {Gd^T″}-GK([Gly-Gd^T″])WHCYTYFPHHYCVYG
modifications: disulfide 5-14 (inferred)
B23: Compound ID 964 (peptide)
peptide: {Gd^T″}-GK([Gly-Gd^T″])WHCYTYFPYHYCLYG
modifications: disulfide 5-14 (inferred)
B24: Compound ID 935 (peptide)
peptide: {Gd^T″}-GQWHCTTRFPHH[Phe(3-OMe)]CLYG
modifications: disulfide 5-14 (inferred)
B25: Compound ID 934 (peptide)
peptide: {Gd^T″}-GQWHCTTRFPHH[hTyr(Me)]CLYG
modifications: disulfide 5-14 (inferred)
B26: Compound ID 943 (peptide)
peptide: {Gd^T″}-GK([Gly-Gd^T″])WHCYTYFPHHYCLYG
modifications: disulfide 5-14 (inferred)
B27: Compound ID 942 (peptide)
peptide: {Gd^T″}-GK([Gly-Gd^T″])WHCTTYFPHHYCVYG
modifications: disulfide 5-14 (inferred)
B28: Compound ID 930 (peptide)
peptide: {Gd^T″}-GK([Gly-Gd^T″])WHCTTLFPHHYCLYG
modifications: disulfide 5-14 (inferred)

These binders were tested against T1, human collagen type I, acid soluble, extracted from placenta (Sigma C7774) (human, UniProt P02452 162-1218; P08123 80-1119) (assay: dried collagen assay).
T1 construct: tissue extract, gelled and dried in wells; also called dried human collagen; h-Collagen
T1 sequence (P02452 162-1218 limits assumed, chain 1 of 2): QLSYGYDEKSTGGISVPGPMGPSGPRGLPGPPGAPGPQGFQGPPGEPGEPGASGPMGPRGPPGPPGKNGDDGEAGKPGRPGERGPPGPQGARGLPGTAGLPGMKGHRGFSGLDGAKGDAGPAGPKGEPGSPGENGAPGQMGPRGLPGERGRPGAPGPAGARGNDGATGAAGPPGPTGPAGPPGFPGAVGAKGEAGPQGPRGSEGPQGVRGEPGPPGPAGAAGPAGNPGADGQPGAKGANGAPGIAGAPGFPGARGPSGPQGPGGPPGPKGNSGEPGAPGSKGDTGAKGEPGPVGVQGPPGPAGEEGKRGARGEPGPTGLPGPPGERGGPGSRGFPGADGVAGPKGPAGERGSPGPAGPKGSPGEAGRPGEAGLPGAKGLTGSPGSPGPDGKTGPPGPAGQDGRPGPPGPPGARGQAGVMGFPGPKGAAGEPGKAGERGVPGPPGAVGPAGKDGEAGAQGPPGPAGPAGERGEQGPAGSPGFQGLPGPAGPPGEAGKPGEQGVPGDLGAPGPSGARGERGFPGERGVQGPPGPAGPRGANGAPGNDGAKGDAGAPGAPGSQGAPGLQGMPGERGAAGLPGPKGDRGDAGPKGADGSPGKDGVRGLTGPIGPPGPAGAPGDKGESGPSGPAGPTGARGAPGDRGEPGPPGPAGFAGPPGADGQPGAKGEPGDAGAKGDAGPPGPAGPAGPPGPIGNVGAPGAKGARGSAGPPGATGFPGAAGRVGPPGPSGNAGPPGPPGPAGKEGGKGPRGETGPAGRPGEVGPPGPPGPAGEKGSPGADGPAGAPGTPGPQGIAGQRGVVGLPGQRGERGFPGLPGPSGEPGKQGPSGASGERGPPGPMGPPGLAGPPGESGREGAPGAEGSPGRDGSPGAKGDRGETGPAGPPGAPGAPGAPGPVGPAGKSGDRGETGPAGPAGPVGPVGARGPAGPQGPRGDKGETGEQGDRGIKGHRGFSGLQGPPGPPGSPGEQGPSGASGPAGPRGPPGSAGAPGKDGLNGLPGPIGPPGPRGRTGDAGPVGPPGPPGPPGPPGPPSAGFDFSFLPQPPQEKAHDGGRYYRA
T1 sequence (P08123 80-1119 limits assumed, chain 2 of 2): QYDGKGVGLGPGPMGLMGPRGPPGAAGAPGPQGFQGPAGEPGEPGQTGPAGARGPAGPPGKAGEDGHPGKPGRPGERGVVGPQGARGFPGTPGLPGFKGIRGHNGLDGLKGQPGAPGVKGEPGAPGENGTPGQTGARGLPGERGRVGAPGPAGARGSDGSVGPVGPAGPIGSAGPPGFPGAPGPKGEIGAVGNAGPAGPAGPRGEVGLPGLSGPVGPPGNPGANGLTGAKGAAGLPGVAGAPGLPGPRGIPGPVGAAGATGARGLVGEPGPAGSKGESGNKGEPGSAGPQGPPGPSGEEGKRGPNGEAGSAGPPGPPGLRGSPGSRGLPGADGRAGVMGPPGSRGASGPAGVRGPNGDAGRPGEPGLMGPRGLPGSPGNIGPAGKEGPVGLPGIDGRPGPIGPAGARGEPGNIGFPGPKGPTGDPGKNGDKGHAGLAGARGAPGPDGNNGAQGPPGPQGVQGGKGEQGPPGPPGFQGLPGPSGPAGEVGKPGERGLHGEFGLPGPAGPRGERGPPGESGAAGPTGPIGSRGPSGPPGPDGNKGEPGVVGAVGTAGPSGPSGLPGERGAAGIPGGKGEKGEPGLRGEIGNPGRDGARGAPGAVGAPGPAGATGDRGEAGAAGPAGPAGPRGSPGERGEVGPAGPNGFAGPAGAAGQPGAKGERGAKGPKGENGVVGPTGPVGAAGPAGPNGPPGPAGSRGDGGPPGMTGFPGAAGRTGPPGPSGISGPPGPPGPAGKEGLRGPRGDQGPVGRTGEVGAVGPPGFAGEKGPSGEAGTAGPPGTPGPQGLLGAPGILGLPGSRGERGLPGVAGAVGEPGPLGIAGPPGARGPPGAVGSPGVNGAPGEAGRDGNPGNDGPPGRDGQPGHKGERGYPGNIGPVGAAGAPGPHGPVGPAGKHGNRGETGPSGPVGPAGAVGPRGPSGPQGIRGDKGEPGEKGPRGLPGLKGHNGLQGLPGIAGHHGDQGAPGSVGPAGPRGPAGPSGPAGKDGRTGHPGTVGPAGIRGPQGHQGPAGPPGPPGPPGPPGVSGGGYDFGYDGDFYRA

With B1 as the binder, how does the “% bound” value read?
Its value is 81%.

With B2 as the binder, how does the “% bound” value read?
The value was 64%.

With B3 as the binder, how does the “% bound” value read?
Its value is 25%.

B4 was tested. Which “% bound” value did it give?
The value was 42%.

Which “% bound” value does the source give for B5 here?
Its value is 71%.

For B6, which “% bound” value is on record?
Its value is 72%.

B7 was tested. Which “% bound” value did it give?
The value was 36%.

How did the “% bound” value turn out when B8 was run?
Its value is 70%.

With B9 as the binder, how does the “% bound” value read?
The value was 83%.

Which “% bound” value does the source give for B10 here?
The value was 82%.

B11 was tested. Which “% bound” value did it give?
Its value is 58%.

For B12, which “% bound” value is on record?
The value was 39%.

With B13 as the binder, how does the “% bound” value read?
Its value is 73%.

With B14 as the binder, how does the “% bound” value read?
Its value is 64%.

B15 was tested. Which “% bound” value did it give?
The value was 45%.

For B16, which “% bound” value is on record?
The value was 20%.

For B17, which “% bound” value is on record?
Its value is 50%.

Which “% bound” value does the source give for B18 here?
Its value is 27%.

Which “% bound” value does the source give for B19 here?
Its value is 31%.

For B20, which “% bound” value is on record?
Its value is 52%.

Which “% bound” value does the source give for B21 here?
The value was 16%.

B22 was tested. Which “% bound” value did it give?
The value was 91%.

B23 was tested. Which “% bound” value did it give?
The value was 88%.

Which “% bound” value does the source give for B24 here?
The value was 59%.

How did the “% bound” value turn out when B25 was run?
The value was 21%.

How did the “% bound” value turn out when B26 was run?
Its value is 55%.

For B27, which “% bound” value is on record?
Its value is 78%.

B28 was tested. Which “% bound” value did it give?
Its value is 31%.

Each binder was assayed against T2, rat collagen, acid soluble, type I, rat tail (Upstate 08-115) (rat, UniProt P02454 152-1207; P02466 86-1125) (assay: dried collagen assay).
T2 construct: tissue extract, gelled and dried in wells; also called dried rat collagen
T2 sequence (P02454 152-1207, chain 1 of 2): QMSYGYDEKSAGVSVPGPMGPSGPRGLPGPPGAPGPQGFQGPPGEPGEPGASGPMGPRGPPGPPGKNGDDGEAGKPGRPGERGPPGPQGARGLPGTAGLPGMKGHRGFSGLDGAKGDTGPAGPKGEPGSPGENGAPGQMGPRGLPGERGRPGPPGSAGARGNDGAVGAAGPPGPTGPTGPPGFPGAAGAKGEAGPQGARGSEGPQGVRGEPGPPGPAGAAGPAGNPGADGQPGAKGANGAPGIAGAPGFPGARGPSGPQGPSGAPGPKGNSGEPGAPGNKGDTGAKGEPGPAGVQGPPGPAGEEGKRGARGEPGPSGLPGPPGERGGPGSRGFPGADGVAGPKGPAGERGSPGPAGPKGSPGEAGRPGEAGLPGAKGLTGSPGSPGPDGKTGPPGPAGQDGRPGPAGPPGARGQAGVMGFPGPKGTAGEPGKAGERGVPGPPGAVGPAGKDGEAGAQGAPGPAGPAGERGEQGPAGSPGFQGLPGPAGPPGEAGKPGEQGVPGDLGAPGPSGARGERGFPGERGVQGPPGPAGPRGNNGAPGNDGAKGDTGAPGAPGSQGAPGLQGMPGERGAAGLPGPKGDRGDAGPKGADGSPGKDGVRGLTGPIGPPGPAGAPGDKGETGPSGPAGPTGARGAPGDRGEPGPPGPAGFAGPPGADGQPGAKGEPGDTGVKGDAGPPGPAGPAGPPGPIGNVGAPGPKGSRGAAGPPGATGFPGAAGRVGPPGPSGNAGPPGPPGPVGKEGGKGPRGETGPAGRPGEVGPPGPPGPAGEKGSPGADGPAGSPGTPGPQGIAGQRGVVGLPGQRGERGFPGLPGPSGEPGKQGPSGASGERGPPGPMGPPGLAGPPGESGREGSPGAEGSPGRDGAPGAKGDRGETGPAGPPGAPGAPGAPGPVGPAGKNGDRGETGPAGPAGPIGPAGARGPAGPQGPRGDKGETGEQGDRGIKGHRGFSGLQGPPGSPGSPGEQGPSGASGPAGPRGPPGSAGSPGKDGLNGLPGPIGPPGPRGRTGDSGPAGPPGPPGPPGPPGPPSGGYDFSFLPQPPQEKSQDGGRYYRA
T2 sequence (P02466 86-1125, chain 2 of 2): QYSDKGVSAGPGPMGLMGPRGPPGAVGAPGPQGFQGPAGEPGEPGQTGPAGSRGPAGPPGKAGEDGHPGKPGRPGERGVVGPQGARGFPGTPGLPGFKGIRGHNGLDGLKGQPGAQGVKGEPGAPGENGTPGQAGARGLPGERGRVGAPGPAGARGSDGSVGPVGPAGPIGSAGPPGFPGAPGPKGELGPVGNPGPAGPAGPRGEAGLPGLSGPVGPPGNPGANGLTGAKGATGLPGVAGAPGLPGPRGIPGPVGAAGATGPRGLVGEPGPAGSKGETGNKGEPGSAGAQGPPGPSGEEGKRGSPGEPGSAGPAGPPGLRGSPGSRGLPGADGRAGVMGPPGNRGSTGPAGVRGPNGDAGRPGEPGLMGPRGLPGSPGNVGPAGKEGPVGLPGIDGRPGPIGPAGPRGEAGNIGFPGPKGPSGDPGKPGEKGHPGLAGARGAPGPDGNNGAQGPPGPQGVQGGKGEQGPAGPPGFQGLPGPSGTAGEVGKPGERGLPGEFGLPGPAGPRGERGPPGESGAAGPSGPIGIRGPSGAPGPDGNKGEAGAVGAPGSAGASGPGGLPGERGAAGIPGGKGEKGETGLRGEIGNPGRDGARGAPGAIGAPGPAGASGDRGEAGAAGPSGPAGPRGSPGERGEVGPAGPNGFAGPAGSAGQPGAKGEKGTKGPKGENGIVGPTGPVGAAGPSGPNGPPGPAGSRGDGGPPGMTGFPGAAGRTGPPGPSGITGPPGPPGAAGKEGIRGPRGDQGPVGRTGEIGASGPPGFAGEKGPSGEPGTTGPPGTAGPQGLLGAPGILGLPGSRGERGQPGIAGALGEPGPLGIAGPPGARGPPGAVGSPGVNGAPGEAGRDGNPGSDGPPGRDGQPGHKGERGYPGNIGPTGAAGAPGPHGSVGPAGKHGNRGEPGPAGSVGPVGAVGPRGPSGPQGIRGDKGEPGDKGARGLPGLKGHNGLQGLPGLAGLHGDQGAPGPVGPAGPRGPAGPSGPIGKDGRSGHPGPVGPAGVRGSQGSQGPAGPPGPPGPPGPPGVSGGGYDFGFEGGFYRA

B1 was tested. Which “% bound” value did it give?
Its value is 87%.

For B2, which “% bound” value is on record?
The value was 63%.

B3 was tested. Which “% bound” value did it give?
The value was 17%.

Which “% bound” value does the source give for B4 here?
Its value is 39%.

With B5 as the binder, how does the “% bound” value read?
The value was 68%.

For B6, which “% bound” value is on record?
Its value is 79%.

With B7 as the binder, how does the “% bound” value read?
The value was 24%.

How did the “% bound” value turn out when B8 was run?
Its value is 83%.

Which “% bound” value does the source give for B9 here?
The value was 82%.

B10 was tested. Which “% bound” value did it give?
The value was 91%.

How did the “% bound” value turn out when B11 was run?
The value was 68%.

For B12, which “% bound” value is on record?
Its value is 15%.

B13 was tested. Which “% bound” value did it give?
The value was 80%.

With B14 as the binder, how does the “% bound” value read?
Its value is 57%.

With B15 as the binder, how does the “% bound” value read?
Its value is 33%.

How did the “% bound” value turn out when B16 was run?
The value was 10%.

For B17, which “% bound” value is on record?
Its value is 50%.

B18 was tested. Which “% bound” value did it give?
The value was 34%.

For B19, which “% bound” value is on record?
The value was 22%.

With B20 as the binder, how does the “% bound” value read?
Its value is 72%.

Which “% bound” value does the source give for B21 here?
The value was 13%.

Which “% bound” value does the source give for B22 here?
Its value is 84%.

For B23, which “% bound” value is on record?
Its value is 86%.

How did the “% bound” value turn out when B24 was run?
Its value is 39%.

Which “% bound” value does the source give for B25 here?
Its value is 14%.

With B26 as the binder, how does the “% bound” value read?
Its value is 72%.

For B27, which “% bound” value is on record?
Its value is 67%.

With B28 as the binder, how does the “% bound” value read?
Its value is 42%.
